This is an account of results in US7728193B2, “Phytochrome-interacting protein and a use thereof” (Genomine Inc., priority 2004, dated 2010).

The target in assay [1] is T1, Arabidopsis thaliana phytochrome A (Arabidopsis thaliana, UniProt P14712).
T1 construct: expressed in transfected cells; host or cells: EGY48 yeast strain with pSH18-34 reporter
T1 sequence (P14712 1-1122): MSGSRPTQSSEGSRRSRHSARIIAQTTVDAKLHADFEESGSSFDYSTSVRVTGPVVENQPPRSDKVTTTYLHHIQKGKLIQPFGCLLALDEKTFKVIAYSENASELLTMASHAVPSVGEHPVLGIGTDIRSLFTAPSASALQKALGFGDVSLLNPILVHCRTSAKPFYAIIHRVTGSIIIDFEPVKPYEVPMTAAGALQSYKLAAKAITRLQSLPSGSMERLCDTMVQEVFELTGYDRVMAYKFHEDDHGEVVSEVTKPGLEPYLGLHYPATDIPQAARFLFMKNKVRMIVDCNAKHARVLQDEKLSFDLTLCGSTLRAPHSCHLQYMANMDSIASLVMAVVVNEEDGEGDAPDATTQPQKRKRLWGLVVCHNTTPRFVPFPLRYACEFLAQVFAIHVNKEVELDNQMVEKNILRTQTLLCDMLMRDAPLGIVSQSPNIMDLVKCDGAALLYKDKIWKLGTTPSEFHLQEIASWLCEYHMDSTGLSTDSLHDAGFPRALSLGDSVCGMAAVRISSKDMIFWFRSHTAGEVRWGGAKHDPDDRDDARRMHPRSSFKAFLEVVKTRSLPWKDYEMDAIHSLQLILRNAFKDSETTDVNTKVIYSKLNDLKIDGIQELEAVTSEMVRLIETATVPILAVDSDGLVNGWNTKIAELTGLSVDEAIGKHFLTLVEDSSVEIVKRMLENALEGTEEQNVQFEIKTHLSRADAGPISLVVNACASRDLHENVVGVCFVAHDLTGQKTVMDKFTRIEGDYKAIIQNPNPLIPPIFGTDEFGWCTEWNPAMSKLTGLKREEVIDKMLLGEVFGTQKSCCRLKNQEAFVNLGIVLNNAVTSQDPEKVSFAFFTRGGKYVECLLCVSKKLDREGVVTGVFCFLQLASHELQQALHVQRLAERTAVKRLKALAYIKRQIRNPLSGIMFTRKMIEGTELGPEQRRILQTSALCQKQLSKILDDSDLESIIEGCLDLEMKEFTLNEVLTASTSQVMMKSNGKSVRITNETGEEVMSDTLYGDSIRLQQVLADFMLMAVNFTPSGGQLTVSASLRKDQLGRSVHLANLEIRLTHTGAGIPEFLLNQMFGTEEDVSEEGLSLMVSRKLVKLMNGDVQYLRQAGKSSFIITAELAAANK
As to the kind of experiment: Yeast two-hybrid analysis of specificity of interaction. It counts as cell-based. The following applies: EGY48 yeast, Leu-drop out and X-gal media. The source says: A pGilda vector and a pJG4-5 vector (OriGene Technologies) were used to prepare a prey and a bait, […] (see FIG. 4). In this case, as control groups to examine specific binding, hepatitis C virus (HCV) protein NS5A(N) (distributed from professor S K Jang, Department of Life Science, Pohang University of Science and Technology, Korea) and another plant protein SPINDLY(SPY) having the TPR domain (Jacobsen, S. E., et al., Proc. Natl. Acad. Sci. U.S.A. 93:9292-9296, 1996) were used. Furthermore, the prey and the bait were interchanged to observe protein-protein binding by a reciprocal method. The prepared prey and bait together with a pSH18-34 reporter plasmid (OriGene Technologies) were co-introduced into an EGY48 yeast strain (OriGene Technologies). Next, the transformants were selected on a media containing X-gal (5-bromo-4-chloro-3-indolyl-β-D-galactopyranoside; Rose Scientific Ltd.). Plate-growth assays were performed on Leu-drop out media and X-gal media.

For a further assay, the target named is T2, phytochrome A (Arabidopsis thaliana, UniProt P14712).
T2 sequence (P14712 1-1122): T1 sequence (P14712 1-1122)
T2 sequence (Q84XU2 1-484 isoform Q84XU2-2 partner): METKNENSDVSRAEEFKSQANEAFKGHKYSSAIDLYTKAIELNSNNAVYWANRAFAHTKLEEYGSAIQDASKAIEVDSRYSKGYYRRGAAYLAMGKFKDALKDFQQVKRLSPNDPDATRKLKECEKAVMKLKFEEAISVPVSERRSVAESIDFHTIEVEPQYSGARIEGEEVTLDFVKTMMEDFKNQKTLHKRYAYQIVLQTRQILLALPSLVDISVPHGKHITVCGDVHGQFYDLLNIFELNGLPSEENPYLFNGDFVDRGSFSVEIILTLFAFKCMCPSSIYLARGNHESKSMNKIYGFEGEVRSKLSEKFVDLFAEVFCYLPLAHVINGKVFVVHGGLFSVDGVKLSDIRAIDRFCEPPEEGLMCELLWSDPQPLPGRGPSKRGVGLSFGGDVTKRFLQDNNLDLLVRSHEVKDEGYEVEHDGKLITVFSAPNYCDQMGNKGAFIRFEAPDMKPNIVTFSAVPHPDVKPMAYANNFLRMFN
Kind of assay: In vitro binding assay (GST pull-down of 35S-labeled TnT protein). Particulars: 1 μg GST-PAPP5 fusion protein, 4° C.

In the case of “PAPP5: type 5 serine/threonine protein phosphatase of Arabidopsis thaliana interacting with phytochromes, SEQ ID NO: 4”, in assay [1], the “interaction with phytochrome A in yeast two-hybrid” value was “interacted specifically”. For the same substance, the “binding to phytochrome A” value with phytochrome A is given as “has the property of binding”.
